{"source": "paper PMC10022506", "about": "(Journal of Agricultural and Food Chemistry, 2023)", "key": {"[1]": {"test_system": "C=O", "test": "purified protein", "settings": "apparent, 100 mM pyruvate, 1 mM Mg2+, 50 mM CHES pH 9.0, 45 °C"}, "[2]": {"target": "T1, EcYfaU (Escherichia coli, UniProt P76469)", "T1 sequence (P76469 1-267)": "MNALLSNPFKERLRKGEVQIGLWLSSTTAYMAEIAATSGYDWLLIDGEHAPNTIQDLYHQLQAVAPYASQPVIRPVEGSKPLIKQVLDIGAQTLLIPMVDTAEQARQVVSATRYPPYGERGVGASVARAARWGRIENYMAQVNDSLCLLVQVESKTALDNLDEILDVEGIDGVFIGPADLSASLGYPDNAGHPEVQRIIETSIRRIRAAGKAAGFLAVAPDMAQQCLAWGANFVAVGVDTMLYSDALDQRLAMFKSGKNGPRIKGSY", "test": "aldol condensation, HPLC", "format": "biochemical", "settings": "co-substrate pyruvate; substrate inhibition at high concentration"}}, "data": [{"molecule": "PaADL (Pseudomonas aeruginosa; L241A)", "values": [{"measurement": "Km", "setting": "[1]", "value": "65 ± 5.9", "unit": "mM"}, {"measurement": "kcat", "setting": "[1]", "value": 7.2, "unit": "s⁻¹"}, {"measurement": "kcat/Km", "setting": "[1]", "value": 110, "unit": "M⁻¹ s⁻¹"}]}, {"molecule": "PaADL (Pseudomonas aeruginosa; L241A/V121A)", "values": [{"measurement": "Km", "setting": "[1]", "value": "35 ± 4.4", "unit": "mM"}, {"measurement": "kcat", "setting": "[1]", "value": 6.63, "unit": "s⁻¹"}, {"measurement": "kcat/Km", "setting": "[1]", "value": 183, "unit": "M⁻¹ s⁻¹"}]}, {"molecule": "PaADL (Pseudomonas aeruginosa; V121A)", "values": [{"measurement": "Km", "setting": "[1]", "value": "35 ± 4.9", "unit": "mM"}, {"measurement": "kcat", "setting": "[1]", "value": 5.8, "unit": "s⁻¹"}, {"measurement": "kcat/Km", "setting": "[1]", "value": 167, "unit": "M⁻¹ s⁻¹"}]}, {"molecule": "C=O", "note": "[formaldehyde]", "values": [{"measurement": "aldol condensation, HPLC", "setting": "[2]", "value": "we measured the activity of EcYfaU at different substrate concentrations (Figure S7)"}]}]}
